Measurements taken from US20250304677A1 (VIB VZW, published 2025).

B1: P01500002 = h2 variant 2HFO42: 2HF042(Q1E, Q5V, A14P, V40A, L79Y, K83R, K105Q, Q108L)-HIS6 (VHH)
VHH: EVQLVESGGGLVQPGGSLRLSCAASGSGFSGMIMGWYRQAPGKQRELVATVTSHGTTNYADSVKGRFTISRDNAKNTVYLQMNSLRPEDTAVYYCNAHFPGIYWGQGTLVTVSS
notes: Entry includes the tag
B2: P01500006: 2HF042(Q1E, Q5V, A14P, V40A, L79Y, K83R, Q108L)-FLAG3-HIS6 (VHH)
VHH: EVQLVESGGGLVQPGGSLRLSCAASGSGFSGMIMGWYRQAPGKQRELVATVTSHGTTNYADSVKGRFTISRDNAKNTVYLQMNSLRPEDTAVYYCNAHFPGIYWGKGTLVTVSS
notes: Entry includes the tags; also called P0150006
B3: P01500077: P01500001[E1D, G28T, S30I, N73P]Flag3-His6-GS-NT (VHH)
VHH: DVQLVESGGGLVQPGGSLRLSCAASGSTFIGMIMGWYRQAPGKQRELVATVTSHGTTNYADSVKGRFTISRDPAKNTVYLQMNSLRPEDTAVYYCNAHFPGIYWGKGTLVTVSS
notes: Entry includes tags, linker and NT(8-13)
B4: P01500075: P01500001[E1D, I33L, N73P]Flag3-His6-GS-NT (VHH)
VHH: DVQLVESGGGLVQPGGSLRLSCAASGSGFSGMLMGWYRQAPGKQRELVATVTSHGTTNYADSVKGRFTISRDPAKNTVYLQMNSLRPEDTAVYYCNAHFPGIYWGKGTLVTVSS
notes: as for B3
B5: P01500007: 2HF042(Q1E, Q5V, A14P, V40A, L79Y, K83R, K105Q, Q108L)-FLAG3-HIS6 (VHH)
VHH: EVQLVESGGGLVQPGGSLRLSCAASGSGFSGMIMGWYRQAPGKQRELVATVTSHGTTNYADSVKGRFTISRDNAKNTVYLQMNSLRPEDTAVYYCNAHFPGIYWGQGTLVTVSS
notes: Entry includes the tags
B6: P01500004: 2HF042(Q1E, Q5V, Q108L)-HIS6 (VHH)
VHH: EVQLVESGGGLVQAGGSLRLSCAASGSGFSGMIMGWYRQVPGKQRELVATVTSHGTTNYADSVKGRFTISRDNAKNTVLLQMNSLKPEDTAVYYCNAHFPGIYWGKGTLVTVSS
notes: Entry includes the tag; also called 2HFO42 (P01500004); Nb42
B7: P01500074: P01500001[E1D, G26E, I33L]Flag3-His6-GS-NT (VHH)
VHH: DVQLVESGGGLVQPGGSLRLSCAASESGFSGMLMGWYRQAPGKQRELVATVTSHGTTNYADSVKGRFTISRDNAKNTVYLQMNSLRPEDTAVYYCNAHFPGIYWGKGTLVTVSS
notes: as for B3
B8: P01500073: P01500001[E1D, G28T, S30I]Flag3-His6-GS-NT (VHH)
VHH: DVQLVESGGGLVQPGGSLRLSCAASGSTFIGMIMGWYRQAPGKQRELVATVTSHGTTNYADSVKGRFTISRDNAKNTVYLQMNSLRPEDTAVYYCNAHFPGIYWGKGTLVTVSS
notes: as for B3
B9: P01500076: P01500001[E1D, G26E, G28T, S30I, I33L]Flag3-His6-GS-NT (VHH)
VHH: DVQLVESGGGLVQPGGSLRLSCAASESTFIGMLMGWYRQAPGKQRELVATVTSHGTTNYADSVKGRFTISRDNAKNTVYLQMNSLRPEDTAVYYCNAHFPGIYWGKGTLVTVSS
notes: as for B3
B10: P01500003: 2HF019(Q1E, Q5V, Q108L)-HIS6 (VHH)
VHH: EVQLVESGGGLVQPGGSLRVSCAASGFPFSTVYMSWVRQAPGKGLEWVSGINNDGGVIDYADSVKGRFTISRDNAKNTLYLQLNSLKPEDTALYFCARGRSFVATLSSSLRGQGTLVTVSS
notes: Entry includes the tag; also called 2HFO19 (P01500003); Nb19

Experiments:
[1] = target: T1, mouse folate receptor alpha (mFRα), recombinant protein (mouse, UniProt P35846 25-232); assay: BLI, Avi-biotinylated FRα on streptavidin biosensors, VHH 100 nM
T1 construct: Bought recombinant proteins (e.g. biotinylated, Acro Biosystems FO1-M82E9); also called mFOLR1; Ms FOLR1
Description: (§1) The binding of humanized variants of 2HFO42 was assessed by kinetic binding analysis to mouse and human FRα protein, biotinylated via an Avi-tag, captured on streptavidin biosensors by biolayer interferometry ^{∘}BLI), essentially as described earlier. VHHs were analysed at 100 nM concentration, and off-rates were determined using fitting of 1:1 langmurian interaction. Dissociation constants were compared to 2HFO42^{∘}Q1E, Q5V, Q108L) ^{∘}P101500004) and 2MFR67 ^{∘}Q1E, Q5V, Q108L) ^{∘}P0150000), respectively.

[2] = target: T2, human folate receptor alpha (hFRα), recombinant protein (human, UniProt P15328 25-233); assay: as above
T2 construct: Bought recombinant proteins (His-tagged, or biotinylated via Avi-tag, e.g. AcroBiosystems FO1-H82E2, F01-H52H1); also called hFOLR1; huFOLR1
Description: as §1

[3] = target: T2, human folate receptor alpha (hFRα), …; assay: competition AlphaLISA against 2MFR67-Flag3-His6 on human FRα
Description: Secondly, the variants were analysed for the capacity to compete with binding of family 3 VHH 2MFR67 to human FRα in a competition AlphaLISA, which is a homogeneous assay without wash steps. In here, human FRα biotinylated through an Avi-tag ^{∘}FO1-H82E2, AcroBiosystems) is captured on streptavidin coated Alpha Donor beads ^{∘}Perkin Elmer, Cat nr. 6760002), while the 2MFR67 is captured on anti-Flag antibody AlphaLISA acceptor beads ^{∘}Perkin Elmer, Cat nr. AL112C). Binding of 2MFR67 to the FRα leads to an energy transfer from one bead to the other, ultimately producing a fluorescent signal. To each well of white low binding 384-well microtitre plates ^{∘}F-bottom, Greiner Cat nr 781904), 5 μl of serial-diluted VHHs are mixed with 5 μl of 2.5 nM monovalent 2MFR67-Flag3-His6 and 5 μl of 15 nM biotinylated human FRα protein. After an incubation for 1 hour at room temperature, streptavidin coated Alpha Donor beads and anti-Flag AlphaLISA acceptor beads were added to a final concentration of 20 μg/mL each in a final volume of 25 μl for an incubation of 1 hour at room temperature in the dark. Interaction between beads was assessed after illumination at 680 nm and reading at 615 nm of on an Ensight instrument. Curve fitting is done in Graphpad Prism 9.0 using 4PL non-linear regression analysis.

[4] = target: T1, mouse folate receptor alpha (mFRα), …; assay: ELISA on mouse FRα, anti-VHH detection
Procedure, shortened: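 An ELISA using anti-VHH detection measured how VHH binding to mouse folate receptor alpha changed with dose. Each EC50 was read from the resulting dose-response curve.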

[5] = target: T3, human folate receptor alpha expressed on cells (transfected HEK293T, HeLa, MCF7, MDA-MB-231) (human, UniProt P15328 25-234); assay: flow cytometry on HeLa cells, anti-Flag detection
T3 construct: HEK293T transiently transfected with human FOLR1; also called native human FRα; cell-expressed human FOLR1
Description: EC₅₀ values are found in Table 9. Detection of VHH cell binding was done through anti-Flag M2 mIgG1 followed by anti-mFc-PE in flow cytometry. Results are depicted as mean fluorescence intensity ^{∘}MFI).
(§2) Off-rates of purified variants were determined to human, mouse, and cynomolgus FRα in BLI. In addition, binding of the affinity optimised variants to cell-expressed human FRα on HeLa cells was determined by flow cytometry ^{∘}FIG. 10 B).

[6] = target: T1, mouse folate receptor alpha (mFRα), …; assay: BLI, VHH captured by anti-FLAG antibody on mouse Fc biosensors
Procedure, shortened: (§3)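 Binding kinetics of VHHs to rhesus monkey, mouse and human folate receptor alpha were obtained by biolayer interferometry after capture of the VHHs via an anti-FLAG tag antibody on mouse Fc biosensors. Values for kon, koff and the equilibrium dissociation constant (KD) were fitted to a 1:1 binding model.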

[7] = target: T4, rhesus monkey folate receptor alpha, recombinant (rhesus monkey, UniProt F7BP60 25-233); assay: as above
T4 construct: also called rhFolR1; rhesus macaque FRα
Procedure, shortened: as §3

[8] = target: T1, mouse folate receptor alpha (mFRα), …; assay: BLI
Procedure, shortened: (§4)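 Biolayer interferometry was used to measure off-rates, with biotinylated human and mouse folate receptor alpha immobilised on streptavidin biosensors, and koff was calculated from the data. The fit used a 1:1 binding model. Each variant's fold change is taken against its own wild-type VHH: wild-type koff divided by variant koff when the variant's off-rate is better, and the negative of variant koff divided by wild-type koff when it is worse.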

[9] = target: T2, human folate receptor alpha (hFRα), …; assay: BLI
Procedure, shortened: as §4

[10] = target: T1, mouse folate receptor alpha (mFRα), …; assay: BLI, purified VHH
Procedure, shortened: (§5)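 Off-rates to folate receptor alpha from human, mouse and cynomolgus were measured by biolayer interferometry. The VHH proteins tested were made with a flag3-His6 tag in TG-1 E. coli at 0.5 L scale and isolated from the periplasm on Ni Sepharose FastFlow columns.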

[11] = target: T5, cynomolgus folate receptor alpha, recombinant (cynomolgus, UniProt A0A2K5U044 25-233); assay: BLI, purified VHH
T5 construct: also called cyFOLR1; cynomolgus FRα
Procedure, shortened: as §5

[12] = target: T2, human folate receptor alpha (hFRα), …; assay: BLI, purified VHH
Procedure, shortened: as §5

[13] = target: T1, mouse folate receptor alpha (mFRα), …; assay: BLI, Avi-biotinylated FRα
Description: (§6) Purified VHHs ^{∘}100 nM) were analysed for binding to avi-tagged biotinylated FRα protein captured on streptavidin-biosensors via BLI.
as §2

[14] = target: T2, human folate receptor alpha (hFRα), …; assay: BLI, Avi-biotinylated FRα
Description: as §6, §2

[15] = target: T1, mouse folate receptor alpha (mFRα), …; assay: BLI off-rate analysis
[16] = target: T2, human folate receptor alpha (hFRα), …; assay: BLI off-rate analysis

T4 sequence (F7BP60 entry or part of it): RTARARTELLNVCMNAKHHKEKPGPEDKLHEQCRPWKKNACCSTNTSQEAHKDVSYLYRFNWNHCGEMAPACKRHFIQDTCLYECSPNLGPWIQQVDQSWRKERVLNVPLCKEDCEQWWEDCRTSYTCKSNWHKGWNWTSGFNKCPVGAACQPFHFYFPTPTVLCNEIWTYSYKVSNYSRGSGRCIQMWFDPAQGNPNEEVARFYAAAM
T2 sequence (P15328 25-233 limits assumed): as the sequence (F7BP60 entry or part of it) above, with T2I, R4W, K37R, P146A, Y171H counted along it
T1 sequence (P35846 25-232 limits assumed): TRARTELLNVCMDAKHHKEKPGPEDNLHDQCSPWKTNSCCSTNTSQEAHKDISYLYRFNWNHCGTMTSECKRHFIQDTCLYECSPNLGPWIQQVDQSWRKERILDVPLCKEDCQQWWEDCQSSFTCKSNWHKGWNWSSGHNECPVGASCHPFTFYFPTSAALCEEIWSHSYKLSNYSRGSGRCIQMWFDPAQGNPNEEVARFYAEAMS
T3 sequence (P15328 25-234 limits assumed): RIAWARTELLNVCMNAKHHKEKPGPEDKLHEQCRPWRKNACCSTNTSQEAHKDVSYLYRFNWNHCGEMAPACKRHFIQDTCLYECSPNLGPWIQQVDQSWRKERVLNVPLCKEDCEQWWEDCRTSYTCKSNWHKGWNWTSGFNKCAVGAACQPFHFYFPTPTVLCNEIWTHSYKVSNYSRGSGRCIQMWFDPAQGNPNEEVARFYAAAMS
T5 sequence (A0A2K5U044 entry or part of it): as the sequence (F7BP60 entry or part of it) above

| Binder | koff [1] | koff [2] | IC50 [3] | koff [15] | koff [16] | further results |
| --- | --- | --- | --- | --- | --- | --- |
| B1 | 0.00307 s⁻¹ | 0.0132 s⁻¹ | 43.7 nM | – | – | EC50 (read off the curve) [4]: ~5 nM |
| B2 | 0.00252 s⁻¹ | 0.012 s⁻¹ | – | – | – | EC50 [5]: 32.4 nM; MFI top [5]: 35300 MFI; Kd [6]: 6.77 nM; koff [6]: 0.00249 s⁻¹; kon [6]: 367000 M⁻¹ s⁻¹; Kd [7]: 27.7 nM; koff [7]: 0.016 s⁻¹; kon [7]: 577000 M⁻¹ s⁻¹; koff [8]: 0.00162 s⁻¹; nm (Fold wt) [8]: 1; koff [9]: 0.0132 s⁻¹; nm (Fold wt) [9]: 1; koff [10]: 0.00174 s⁻¹; koff [11]: 0.00158 s⁻¹; koff [12]: 0.00947 s⁻¹; koff [13]: 0.00189 s⁻¹; koff [14]: 0.00967 s⁻¹ |
| B3 | – | – | – | 0.000335 s⁻¹ | 0.00217 s⁻¹ | – |
| B4 | – | – | – | 0.000125 s⁻¹ | 0.00125 s⁻¹ | – |
| B5 | 0.00292 s⁻¹ | 0.0164 s⁻¹ | – | – | – | – |
| B6 | 0.00193 s⁻¹ | 0.0102 s⁻¹ | 39 nM | – | – | EC50 (read off the curve) [4]: ~4 nM |
| B7 | – | – | – | 0.000328 s⁻¹ | 0.00181 s⁻¹ | – |
| B8 | – | – | – | 0.000497 s⁻¹ | 0.00346 s⁻¹ | – |
| B9 | – | – | – | 0.000164 s⁻¹ | 0.00112 s⁻¹ | – |
| B10 | 0.00052 s⁻¹ | 0.00499 s⁻¹ | 7.55 nM | – | – | – |
